pIC50: −log10 of the molar value.
Tests used:
[1] = system: T1, LaR2C-N7 (La 174-180) (Homo sapiens); assay: inhibition; conditions: inhibition of HCV IRES translation in rabbit reticulocyte lysate; rescued by La
T1 sequence: KYKETDL

[2] = biological target: T2, LaR2C peptide (24-mer, La 174-197) (Homo sapiens) (UniProt P05455); assay: inhibition; conditions: inhibition of HCV IRES translation in rabbit reticulocyte lysate
T2 sequence: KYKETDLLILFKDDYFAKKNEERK

HCV IRES-luciferase monocistronic RNA (uncapped)
pIC50 [1]: 4.40
pIC50 [2]: 4.52

From patent US20090233868
